Source: PMC11229369
Substitutions are numbered along the chain they refer to. Read-outs that look alike come from different tables or passages of the source.

Assays:
Cas13h1 = molecular target: T1, Cas13h1 (UniProt PDB:8WCE_1 1-1111); assay: cryo-EM
T1 sequence: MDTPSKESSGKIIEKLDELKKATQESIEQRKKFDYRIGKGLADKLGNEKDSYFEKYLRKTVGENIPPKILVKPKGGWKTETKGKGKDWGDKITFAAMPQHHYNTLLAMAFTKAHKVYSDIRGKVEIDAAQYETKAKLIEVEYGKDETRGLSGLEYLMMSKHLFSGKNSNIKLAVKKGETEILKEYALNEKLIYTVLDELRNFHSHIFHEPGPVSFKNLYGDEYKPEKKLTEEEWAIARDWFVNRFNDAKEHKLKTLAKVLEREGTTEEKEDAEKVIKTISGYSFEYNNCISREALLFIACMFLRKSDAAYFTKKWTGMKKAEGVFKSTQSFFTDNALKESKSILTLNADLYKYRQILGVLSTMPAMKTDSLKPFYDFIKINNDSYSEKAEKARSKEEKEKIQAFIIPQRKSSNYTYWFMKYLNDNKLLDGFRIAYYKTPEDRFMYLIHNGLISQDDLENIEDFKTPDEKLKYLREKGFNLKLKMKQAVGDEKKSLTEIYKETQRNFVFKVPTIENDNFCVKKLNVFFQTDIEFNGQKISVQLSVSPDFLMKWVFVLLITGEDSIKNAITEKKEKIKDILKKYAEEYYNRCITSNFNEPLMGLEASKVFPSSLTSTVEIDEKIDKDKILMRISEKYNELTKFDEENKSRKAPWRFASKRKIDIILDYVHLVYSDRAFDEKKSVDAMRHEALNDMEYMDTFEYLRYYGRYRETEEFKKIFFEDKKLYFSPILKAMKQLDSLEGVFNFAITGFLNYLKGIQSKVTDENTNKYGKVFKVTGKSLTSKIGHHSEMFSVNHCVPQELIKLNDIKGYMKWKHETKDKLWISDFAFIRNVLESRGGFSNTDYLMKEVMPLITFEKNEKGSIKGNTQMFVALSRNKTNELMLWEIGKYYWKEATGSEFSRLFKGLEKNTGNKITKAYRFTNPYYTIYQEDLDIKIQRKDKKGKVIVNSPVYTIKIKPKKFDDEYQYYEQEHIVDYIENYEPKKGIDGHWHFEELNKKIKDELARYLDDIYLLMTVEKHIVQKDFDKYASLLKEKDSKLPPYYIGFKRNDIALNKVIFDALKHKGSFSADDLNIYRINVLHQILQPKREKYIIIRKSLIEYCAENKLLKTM

[1] = molecular target: T2, Cas13h1 R200A (catalytically dead) (UniProt PDB:8WCE_1 1-1111, R200A); assay: cryo-EM
T2 sequence: T1 sequence with R200A

Cas13h1 Middle = molecular target: T3, Cas13h1 Middle (UniProt PDB:8WCE_1 340-930); assay: size exclusion chromatography
T3 sequence: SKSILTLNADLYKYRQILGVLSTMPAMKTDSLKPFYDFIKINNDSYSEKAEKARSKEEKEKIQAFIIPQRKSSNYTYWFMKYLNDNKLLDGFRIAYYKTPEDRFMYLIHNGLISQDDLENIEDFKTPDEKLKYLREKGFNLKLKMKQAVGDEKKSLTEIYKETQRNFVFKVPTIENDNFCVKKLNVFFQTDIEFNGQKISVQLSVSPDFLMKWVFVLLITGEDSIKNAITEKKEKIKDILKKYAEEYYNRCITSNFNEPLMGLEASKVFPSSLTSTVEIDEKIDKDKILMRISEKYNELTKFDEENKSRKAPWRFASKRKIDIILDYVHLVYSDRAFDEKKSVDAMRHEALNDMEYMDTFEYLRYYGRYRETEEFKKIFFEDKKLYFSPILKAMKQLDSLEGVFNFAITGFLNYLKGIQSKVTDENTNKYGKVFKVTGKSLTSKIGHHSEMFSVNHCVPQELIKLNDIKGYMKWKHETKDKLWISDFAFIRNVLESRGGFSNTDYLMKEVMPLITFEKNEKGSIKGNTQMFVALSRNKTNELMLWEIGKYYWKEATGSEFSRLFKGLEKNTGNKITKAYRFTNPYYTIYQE

[2] = molecular target: T2, Cas13h1 R200A (catalytically dead); assay: cryo-EM; remark: listed apart in the source

B1: crRNA (30-nt guide, 36-nt repeat) (structured_RNA)
RNA: UGCUUCACGUAGGCCUUGGAGCCGUACAUGGUUGUAACAAGCCUAAGUUUGAAAGGUAAAAACAAC
binding result (Cas13h1): binds

B2: crRNA / target RNA1 (5'-G) (structured_RNA)
RNA 1: B1 RNA
RNA 2: GCAUGUACGGCUCCAAGGCCUACGUGAAGCA
binding result [1]: binds | binding result (Cas13h1 Middle): binds

B3: crRNA / target RNA3 (5'-U) (structured_RNA)
RNA 1: B1 RNA
RNA 2: B2 RNA 2 with G1U
binding result [2]: binds
